Results published in patent US20110020353A1 (published 2011).

Biological target: T1, 161P2F10B variant 1 (human), on the cell surface (human, UniProt O14638 1-875)
T1 construct: Reported to be dimeric on the cell surface; also called 161P2F10B v.1; CD203c
Test: FACS on KU-812 cells, serial dilutions, one site binding fit

Kd: 0.02 nM
B1: Ha16-1.42 (antibody, V domains shown)
VH: EVQLVQSGAEVKKPGESLKISCKGSGYRFTSYWIGWVRQMPGKGLEWMGIIYPGDSDTRYSPSFQGQVTISADKSISTAYLQWSSLKASDTAMYYCARKDYYYYSMDVWGQGTTVTVSS
VL: QSALTQPASVSGSPGQSITISCTGTSSDVGRFNYVSWYQQRPGKAPKLMIYAVNIRPSGVSNRFSGSKSGNTASLTISGLQAEDEAGYYCSSYTSSSTLLVFGGGTKLTVLG
